Measured values: patent US20240132575A1 (MEMO THERAPEUTICS, published 2024)
Where a chain is given by its changes, count along the chain named. Like-named read-outs stand apart in the source and are kept apart here.

B1: antibody 319C07 (antibody, human IgG1, kappa, V domains shown)
VH: QVQLQQWGAGLLKPSETLSLTCAVYRGSFSAYYWTWFRQPPGKGLEWIGEINHRGYTNYNPSLRGRVSISVDTSKKQFSLKLRSVNAADTAVYYCATLRSTSGWHDYFDYWGQGTLVTVSS
VL: EIVLTQSPGTLSLSPGERATLSCRASQSVSSSYLAWYQQTPGQAPRLLIYGASSRATGIPDRFSGSGSGTDFTLTISRLEPEDFVVYFCLQYGSSPLTFGPGTKVDIKR
notes: also called 319C7
B2: comparative antibody P8D11 (WO 2017/046676) (antibody, human IgG1, lambda, V domains shown)
VH: QVQLVESGGTLVQPGGSLRLSCAASGFTFNNYWMTWVRQAPGKGLEWVANIKKDGSEKYYVDSVRGRFTISRDNAKNSLFLQMNSLRPEDTAVYFCATVRSGRYFALDDWGQGTLVTVSS
VL: QSVLTQPPSVSVAPGKTARITCGGDNIGSRPVHWYQQKPGQAPILVVYDDSNRPSGIPERFSGSNSGNTATLTISRVEAGDEADYYCQVWSSSTDHPFGGGTKVTVLG
notes: also called BM2
B3: antibody 336F07 (antibody, human IgG1, kappa, V domains shown)
VH: EEPLLESGGGLVQPGGSLRLSCAASGFTFRLYAMNWVRQAPGKGLEWVSLISGSGTATYYADSVTGRFSISRDNYKNRVYLQMDSLRADDTATYYCAKTYPTWGGVVIGAIDVWGQGTTVTVSS
VL: DIQMTQSPSTLSASVGDRVTITCRASQSIQRWLAWHQQKPGRAPKVLIHDASTLESGVPSRFSGSGSGTEFTLTISSLQPDDFATYYCQQYNGHASTFGPGTKVDIKR
notes: also called 336FC07

Legend:
[1] = molecular target: T1, BKV serotype Ib VP1 on BK pseudovirus (VP1-Ib) (BK virus serotype Ib, UniProt P03088 1-362); experiment: cell-based or functional assay
T1 chain: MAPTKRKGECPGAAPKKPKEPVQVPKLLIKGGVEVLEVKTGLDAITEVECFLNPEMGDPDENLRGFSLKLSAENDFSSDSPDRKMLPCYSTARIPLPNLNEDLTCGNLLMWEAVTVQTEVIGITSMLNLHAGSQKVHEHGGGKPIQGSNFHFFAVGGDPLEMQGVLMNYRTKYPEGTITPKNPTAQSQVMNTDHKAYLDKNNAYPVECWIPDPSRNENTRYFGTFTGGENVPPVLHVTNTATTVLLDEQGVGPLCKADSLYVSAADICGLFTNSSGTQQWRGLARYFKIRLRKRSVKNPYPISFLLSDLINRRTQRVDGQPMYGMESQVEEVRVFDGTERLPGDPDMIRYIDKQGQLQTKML

[2] = molecular target: T2, BKV serotype II VP1 on BK pseudovirus (VP1-II) (BK virus serotype II, UniProt P14996 1-362); experiment: cell-based or functional assay
T2 chain: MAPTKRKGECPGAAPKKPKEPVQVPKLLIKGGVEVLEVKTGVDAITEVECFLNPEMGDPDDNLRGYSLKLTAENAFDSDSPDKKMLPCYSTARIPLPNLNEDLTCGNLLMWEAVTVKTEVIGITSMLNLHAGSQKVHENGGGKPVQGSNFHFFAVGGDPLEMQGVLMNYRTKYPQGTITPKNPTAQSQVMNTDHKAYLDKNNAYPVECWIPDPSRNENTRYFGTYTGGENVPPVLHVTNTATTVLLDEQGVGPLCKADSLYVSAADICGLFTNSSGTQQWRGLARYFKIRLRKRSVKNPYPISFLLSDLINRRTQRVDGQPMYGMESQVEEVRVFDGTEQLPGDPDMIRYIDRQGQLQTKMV

[3] = molecular target: T3, BKV serotype III VP1 on BK pseudovirus (VP1-III) (BK virus serotype III, UniProt P14996 1-362); experiment: cell-based or functional assay
T3 sequence: T2 chain with L68Q, K69H, T71S, D77E, K83R

[4] = molecular target: T4, BKV serotype IV VP1 on BK pseudovirus (VP1-IVc) (BK virus serotype IV, UniProt P14996 1-362); experiment: cell-based or functional assay
T4 chain: T2 chain with D61N, N62D, K69R, N74T, K83R, V145I, Q175E, I178V, R215K, A284P

[5] = molecular target: T5, BKV serotype Ia VP1 on BK pseudovirus (VP1-Ia) (BK virus serotype Ia, UniProt P03088 1-362); experiment: cell-based or functional assay
T5 chain: T1 chain with L42V, D82E, E175D, I210V

JCV VP1 pentamer = molecular target: T6, JCV VP1 pentamer (JC virus, UniProt P03089 23-292); experiment: ELISA on coated JCV-VP1 pentamer
T6 construct: also called JC-VP1; VP1 of the JC virus
T6 sequence (P03089 23-292 limits assumed): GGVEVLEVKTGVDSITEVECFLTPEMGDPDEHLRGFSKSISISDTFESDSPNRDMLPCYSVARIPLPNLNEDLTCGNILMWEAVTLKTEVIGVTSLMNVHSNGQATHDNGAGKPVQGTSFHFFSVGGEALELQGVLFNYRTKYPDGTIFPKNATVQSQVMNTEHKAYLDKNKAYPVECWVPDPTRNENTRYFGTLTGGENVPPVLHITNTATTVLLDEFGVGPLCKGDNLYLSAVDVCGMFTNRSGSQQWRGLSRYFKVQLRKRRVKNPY

[6] = molecular target: T7, BKV serotype I VP1 pentamer (VP1-I) (BK virus serotype I, UniProt P03088 31-300); experiment: ELISA, VP1 pentamer coated, IgG titrated (EC50E)
T7 construct: also called BKV-VP1 serotype I
T7 chain: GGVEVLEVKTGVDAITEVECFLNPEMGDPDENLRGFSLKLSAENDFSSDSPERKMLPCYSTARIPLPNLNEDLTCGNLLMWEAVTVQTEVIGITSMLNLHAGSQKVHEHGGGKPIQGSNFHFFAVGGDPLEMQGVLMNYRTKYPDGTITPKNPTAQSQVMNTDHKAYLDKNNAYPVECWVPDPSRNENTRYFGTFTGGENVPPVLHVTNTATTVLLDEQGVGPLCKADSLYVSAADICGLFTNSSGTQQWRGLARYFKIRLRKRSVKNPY
Procedure: (§1) The binding of anti-BK virus antibodies to BKV-VP1 pentamers was analyzed by ELISA. […] Antibodies were serially diluted in PBS with 0.5% skim milk powder and added to the antigen-coated plates for 1.5 h. […] Plates were washed three times with PBS containing 0.05% Tween 20. The reaction was developed using 30 μl/well TMB liquid substrate (Sigma-Aldrich, #T0440) and stopped with 15 μl/well H₂SO₄. […] Data were fitted and apparent EC50 ELISA values (EC50E) were determined by three-parameter analysis in GraphPad Prism (GraphPad Software).

[7] = molecular target: T8, BKV serotype II VP1 pentamer (VP1-II) (BK virus serotype II, UniProt P14996 31-300); experiment: ELISA, VP1 pentamer coated, IgG titrated (EC50E)
T8 construct: VP1 pentamer construct; also called BKV-VP1 serotype II
T8 chain: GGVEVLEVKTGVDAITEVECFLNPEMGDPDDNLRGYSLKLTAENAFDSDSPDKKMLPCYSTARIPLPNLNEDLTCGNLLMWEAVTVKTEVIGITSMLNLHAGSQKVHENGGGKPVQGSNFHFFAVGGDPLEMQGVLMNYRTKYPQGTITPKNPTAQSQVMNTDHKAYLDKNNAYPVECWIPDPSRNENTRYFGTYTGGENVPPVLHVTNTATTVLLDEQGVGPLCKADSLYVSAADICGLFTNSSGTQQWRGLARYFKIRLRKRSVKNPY
Procedure: as §1

[8] = molecular target: T9, BKV serotype III VP1 pentamer (VP1-III) (BK virus serotype III, UniProt P14996 31-300); experiment: ELISA, VP1 pentamer coated, IgG titrated (EC50E)
T9 construct: also called BKV-VP1 serotype III
T9 sequence: T8 chain with L38Q, K39H, T41S, D47E, K53R
Procedure: as §1

[9] = molecular target: T1, BKV serotype Ib VP1 on BK pseudovirus …; experiment: cell-based or functional assay
[10] = molecular target: T2, BKV serotype II VP1 on BK pseudovirus …; experiment: cell-based or functional assay
[11] = molecular target: T3, BKV serotype III VP1 on BK pseudovirus …; experiment: cell-based or functional assay; remark: listed apart in the source
[12] = molecular target: T4, BKV serotype IV VP1 on BK pseudovirus …; experiment: cell-based or functional assay
[13] = molecular target: T5, BKV serotype Ia VP1 on BK pseudovirus …; experiment: cell-based or functional assay
[14] = molecular target: T8, BKV serotype II VP1 pentamer (VP1-II); experiment: ELISA, VP1 pentamer coated, IgG titrated (EC50E)
Procedure: as §1

[15] = molecular target: T9, BKV serotype III VP1 pentamer (VP1-III); experiment: ELISA, VP1 pentamer coated, IgG titrated (EC50E); remark: listed apart in the source
Procedure: as §1

[16] = molecular target: T10, BKV serotype IV VP1 pentamer (VP1-IV) (BK virus serotype IV, UniProt P14996 31-300); experiment: ELISA, VP1 pentamer coated, IgG titrated (EC50E)
T10 construct: also called BKV-VP1 serotype IV
T10 chain: T8 chain with D31N, N32D, K39R, N44T, K53R, V115I, Q145E, I148V, A254P, L261M
Procedure: as §1

Binder	IC50 (nM), neutralization of BK-Pseudovirus (NanoLuc luciferase, 293TT cells) [1]	IC50 (nM), neutralization of BK-Pseudovirus (NanoLuc luciferase, 293TT cells) [2]	IC50 (nM), neutralization of BK-Pseudovirus (NanoLuc luciferase, 293TT cells) [3]	IC50 (nM), neutralization of BK-Pseudovirus (NanoLuc luciferase, 293TT cells) [4]	IC50 (nM), neutralization of BK-Pseudovirus (NanoLuc luciferase, 293TT cells) [5]	binding result (JCV VP1 pentamer)	EC50 [6]	EC50 [7]	EC50 [8]	IC50 (nM), neutralization of BK-Pseudovirus (NanoLuc luciferase, 293TT cells) [9]	IC50 (nM), neutralization of BK-Pseudovirus (NanoLuc luciferase, 293TT cells) [10]	IC50 (nM), neutralization of BK-Pseudovirus (NanoLuc luciferase, 293TT cells) [11]	IC50 (nM), neutralization of BK-Pseudovirus (NanoLuc luciferase, 293TT cells) [12]	IC50 (nM), neutralization of BK-Pseudovirus (NanoLuc luciferase, 293TT cells) [13]	EC50 [14]	EC50 [15]	EC50 [16]
B1	0.007 nM	0.01 nM	0.058 nM	0.032 nM	0.007 nM	no binding	0.05 nM	0.06 nM	0.06 nM								
B2	0.392 nM	0.565 nM	0.176 nM	2.91 nM	0.391 nM	binds				0.392 nM	0.565 nM	0.176 nM	2.91 nM	0.391 nM			
B3						no binding				0.103 nM	0.02 nM	0.019 nM	0.018 nM	0.094 nM	0.03 nM	0.02 nM	0.03 nM
